PMC8546961, “Cofactor Specificity of Glucose-6-Phosphate Dehydrogenase Isozymes in Pseudomonas putida Reveals a General Principle Underlying Glycolytic Strategies in Bacteria” (mSystems, 2021)
Read-outs that look alike come from different tables or passages of the source. Blank lines part the entries; values can stand above or below the molecule they belong to.

How the values were obtained:
G6PDH-C = target: T1, G6PDH-C (Pseudomonas putida, UniProt Q88C32); assay: initial rates, NAD(P)H formation at […] nm, global fit (DYNAFIT), rapid-equilibrium random-ordered model; type: biochemical; details: buffer A (50 mM Tris-HCl, 5 mM NaCl, 5 mM MgCl2, 5% glycerol), pH 8.0, 30°C, G6P varied
T1 construct: gene zwf
T1 sequence (Q88C32 1-485): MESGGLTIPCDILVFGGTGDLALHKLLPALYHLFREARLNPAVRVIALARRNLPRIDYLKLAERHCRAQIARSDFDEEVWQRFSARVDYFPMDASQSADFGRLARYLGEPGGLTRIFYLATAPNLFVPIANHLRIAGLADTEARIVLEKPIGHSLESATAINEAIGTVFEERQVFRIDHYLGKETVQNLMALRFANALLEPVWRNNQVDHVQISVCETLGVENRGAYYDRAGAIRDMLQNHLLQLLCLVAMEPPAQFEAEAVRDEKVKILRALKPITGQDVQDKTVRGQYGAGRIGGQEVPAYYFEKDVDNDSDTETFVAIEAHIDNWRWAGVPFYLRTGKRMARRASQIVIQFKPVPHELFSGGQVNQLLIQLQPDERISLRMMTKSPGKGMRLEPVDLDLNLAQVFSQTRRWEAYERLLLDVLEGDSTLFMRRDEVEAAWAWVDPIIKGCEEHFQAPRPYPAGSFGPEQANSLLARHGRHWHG

G6PDH-B = target: T2, G6PDH-B (Pseudomonas putida, UniProt Q88FP7); assay: as above; type: biochemical; details: buffer A (50 mM Tris-HCl, 5 mM NaCl, 5 mM MgCl2, 5% glycerol), pH 8.0, 30°C, G6P varied
T2 construct: gene zwfB
T2 sequence (Q88FP7 1-501): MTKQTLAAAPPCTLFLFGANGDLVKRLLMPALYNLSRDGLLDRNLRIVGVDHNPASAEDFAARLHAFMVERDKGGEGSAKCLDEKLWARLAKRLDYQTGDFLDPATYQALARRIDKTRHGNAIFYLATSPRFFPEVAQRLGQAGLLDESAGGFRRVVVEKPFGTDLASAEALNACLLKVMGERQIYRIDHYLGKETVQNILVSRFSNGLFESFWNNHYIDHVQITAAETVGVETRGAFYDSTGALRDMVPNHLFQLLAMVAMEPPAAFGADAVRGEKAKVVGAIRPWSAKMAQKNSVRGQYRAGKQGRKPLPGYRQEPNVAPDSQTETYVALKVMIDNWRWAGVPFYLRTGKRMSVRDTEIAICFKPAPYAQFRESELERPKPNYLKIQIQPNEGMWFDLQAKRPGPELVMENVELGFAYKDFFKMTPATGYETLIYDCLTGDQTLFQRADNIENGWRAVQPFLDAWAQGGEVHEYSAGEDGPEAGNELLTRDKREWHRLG

purified protein [1] = substrate: NC(=O)c1ccc[n+]([C@@H]2O[C@H](COP(=O)(O)OP(=O)(O)OC[C@H]3O[C@@H](n4cnc5c(N)ncnc54)[C@H](O)[C@@H]3O)[C@@H](O)[C@H]2O)c1; assay: purified protein; type: biochemical, Pseudomonas putida; details: G6P co-substrate, buffer A (50 mM Tris-HCl, 5 mM NaCl, 5 mM MgCl2, 5% glycerol), pH 8.0, 30°C
purified protein [2] = substrate: NC(=O)c1ccc[n+]([C@@H]2O[C@H](COP(=O)(O)OP(=O)(O)OC[C@H]3O[C@@H](n4cnc5c(N)ncnc54)[C@H](OP(=O)(O)O)[C@@H]3O)[C@@H](O)[C@H]2O)c1; assay: purified protein; type: biochemical, Pseudomonas putida; details: G6P co-substrate, buffer A (50 mM Tris-HCl, 5 mM NaCl, 5 mM MgCl2, 5% glycerol), pH 8.0, 30°C
[3] = dissociation constant of NAD+ from free enzyme, read-out: NAD^+ / Ki
[4] = dissociation constant of NADP+ from free enzyme, read-out: NADP^+ / Ki

Kd (G6PDH-C; [3]): 5800 µM
Kd (G6PDH-B; [3]): 301 ± 48 µM
Molecule: NC(=O)c1ccc[n+]([C@@H]2O[C@H](COP(=O)(O)OP(=O)(O)OC[C@H]3O[C@@H](n4cnc5c(N)ncnc54)[C@H](O)[C@@H]3O)[C@@H](O)[C@H]2O)c1 [NAD^+]

Kd (G6PDH-C; [4]): 9.2 ± 1.9 µM
Kd (G6PDH-B; [4]): 790 ± 110 µM
Molecule: NC(=O)c1ccc[n+]([C@@H]2O[C@H](COP(=O)(O)OP(=O)(O)OC[C@H]3O[C@@H](n4cnc5c(N)ncnc54)[C@H](OP(=O)(O)O)[C@@H]3O)[C@@H](O)[C@H]2O)c1 [NADP^+]

B1: G6PDH-C (Pseudomonas putida KT2440) (protein)
chain: T1 sequence (Q88C32 1-485)
Km (purified protein [1]): (9.5 ± 1.1)×10^3 μM
kcat (purified protein [1]): 0.77 ± 0.04 s^–1
Km (purified protein [2]): 3.2 ± 0.7 µM
kcat (purified protein [2]): 0.54 ± 0.02 s^–1

B2: G6PDH-B (Pseudomonas putida KT2440) (protein)
chain: T2 sequence (Q88FP7 1-501)
Km (purified protein [1]): 151 ± 7 µM
kcat (purified protein [1]): 120 ± 1 s^–1
Km (purified protein [2]): 165 ± 11 µM
kcat (purified protein [2]): 113 ± 1 s^–1
